This note sets out measurements from article PMC6121587, “In Vitro Inhibitory Mechanism Effect of TRAIP on the Function of TRAF2 Revealed by Characterization of Interaction Domains” (International Journal of Molecular Sciences, 2018).

The term stoichiometry N denotes a count of units in the complex or per binding partner.

Values joined by “and” are separate entries in the source; they are usually repeats but may differ in a detail not shown here. Identical values can stand only once.

B3: TRAIP RING domain plus coiled-coil domain (TRAIP RING-CC, residues 1-157) (domain or fragment, human, UniProt Q9BWF2 1-157, looked up)
chain: MPIRALCTICSDFFDHSRDVAAIHCGHTFHLQCLIQWFETAPSRTCPQCRIQVGKRTIINKLFFDLAQEEENVLDAEFLKNELDNVRAQLSQKDKEKRDSQVIIDTLRDTLEERNATVVSLQQALGKAEMLCSTLKKQMKYLEQQQDETKQAQEEAR
notes: Exists in different forms and higher-order oligomers; calculated monomer mass with the tag 18,893 Da; not shown: His6, C-terminal, kept

Series [1] deals with TRAF4 TRAF domain (TRAF-N and TRAF-C) (human). The experiment in a line: SEC; single purified protein on Superdex 200 10/30, 20 mM Tris-HCl pH 8.0, 150 mM NaCl. (In gel filtration, larger molecules generally elute earlier.)
For series [2], the target named is TRAF2 TRAF domain (TRAF-N and TRAF-C) (human). The description is as above.
Series [3] deals with the molecule itself. The experiment in a line: AUC; sedimentation velocity, 20 °C, 2 mg/mL, 20 mM Tris-HCl pH 8.0, 150 mM NaCl, 45,000 rpm, 280 nm, SEDFIT c(s); the paper calls the TRAIP CC concentration low.
The target of series [4] is B3. Kind of series: native gel or EMSA; Native PAGE shift assay of mixtures of two purified proteins, Phast System, 8-25% gradient gel, Coomassie. The conditions noted are these: both partners purified. Background: In EMSA bound probe runs differently from free probe, usually more slowly.
Series [5] deals with the molecule itself. The experiment in a line: SEC; single purified protein on Superdex 200 10/30, 20 mM Tris-HCl pH 8.0, 150 mM NaCl.
Series [6] concerns the molecule itself. The experiment in a line: SEC + SEC-MALS; TRAIP CC alone, high concentration; Superdex 200 10/30; MALS on mini-DAWN treos.

For “TRAF4 TRAF domain (TRAF-N and TRAF-C) (domain or fragment)”, the stoichiometry N in series [1] worked out at 3.

In series [2], “TRAF2 TRAF domain (TRAF-N and TRAF-C) (domain or fragment)” yielded a stoichiometry N of 3.

B1: TRAF2 TRAF-N coiled-coil domain (amino acids 264-329) (domain or fragment, human, UniProt Q12933 264-329, looked up)
chain: AGSELLQRCESLEKKTATFENIVCVLNREVERVAMTAEACSRQHRLDQDKIEALSSKVQQLERSIG
notes: TNF receptor-associated factor 2 (TRAF2), human, TRAF-N coiled-coil domain, amino acids 264-329; Trimer by SEC; dimer and possible trimer by AUC. 'Human' is said of the TRAF2 TRAF domain in the same methods paragraph, not of this construct itself; also called TRAF2 TRAF-N CC; TRAF2 CC
For the molecule B1, in series [3], the “stoichiometry N” value is 2 and 3. For the same molecule, in series [4], the binding result is “binds”.

B2: TRAF1 TRAF-N coiled-coil domain (amino acids 181-244) (domain or fragment, UniProt Q13077 181-244, looked up)
chain: FMKEKLLAELEGKLRVFENIVAVLNKEVEASHLALATSIHQSQLDRERILSLEQRVVELQQTLA
notes: TNF receptor-associated factor 1 (TRAF1), TRAF-N coiled-coil domain, amino acids 181-244; also called TRAF1 TRAF-N CC
On to B2, for which the “stoichiometry N” value in series [5] was 3.

With B3, the binding result in series [5] is reported as “binds”.

B4: TRAIP coiled-coil domain (TRAIP CC, residues 72-167) (domain or fragment, human, UniProt Q9BWF2 72-167, looked up)
chain: NVLDAEFLKNELDNVRAQLSQKDKEKRDSQVIIDTLRDTLEERNATVVSLQQALGKAEMLCSTLKKQMKYLEQQQDETKQAQEEARRLRSKMKTME
notes: Trimer by SEC and MALS at high concentration, dimer by AUC at low concentration; calculated monomer mass with the tag 12,425 Da; not shown: His6, C-terminal, kept
B4: the entries for the “stoichiometry N” value in series [3] and in series [6] were 2 and 3, respectively.
